# Results from patent publication US11155596B2, “Polypeptide” (AFFIBODY AB, priority 2016, dated 2021).
# How the values were obtained:
# [1] = system: PD-L1 expressing MDA-MB-231 cells; assay: Cell binding analysis by FACS, MDA-MB-231 cells; type: cell-based; conditions: 0.625 μg/ml complex or antibody (anti-PD-L1 antibody 1 μg/ml), negative control 69
# Protocol: Cells incubated with buffer alone were used as negative controls. The cells were incubated for 1 h at 8° C. in the dark, washed twice with 100 μl staining buffer, and resuspended in 100 μl of staining buffer containing 2.5 μg/ml of a goat-anti-human IgG-Alexa488 (Molecular Probes, cat. no. A11013) or, for cells stained with the positive control antibody, goat anti-mouse IgG-Alexa647 antibody (Life Technologies, cat. No. A21236). The cells were incubated for 1 h at 8° C. in the dark, washed twice with 100 μl staining buffer and resuspended in 300 μl of staining buffer. Data from 10,000 cells were obtained using a FACS Calibur ([…]) and the data was analyzed using Flowing software 2.5.0 (Turku University). Mean fluorescence intensity (MFI) was used as a read out of binding capacity.
# [2] = Circular dichroism (CD) spectroscopy, variable temperature measurement; type: physicochemical; conditions: 1 mM EDTA, pH 7.2; for Tm (° C.): 0.5 mg/ml in 20 mM HEPES, VTM 20 to 90° C. at 221 nm; for refolding, CD spectra before and after heating to 90° C.: 20 mM HEPES
# Protocol: Circular dichroism (CD) spectroscopy analysis: Two purified Z variants with a C-terminal cysteine, Z15168-Cys (SEQ ID NO:809) and Z15169-Cys (SEQ ID NO:810), were diluted to 0.5 mg/ml in 20 mM HEPES, 1 mM EDTA, pH 7.2. For each diluted Z variant, a CD spectrum at 250-195 nm was obtained at 20° C. In addition, a variable temperature measurement (VTM) was performed to determine the melting temperature (Tm). In the VTM, the absorbance was measured at 221 nm while the temperature was raised from 20 to 90° C., with a temperature slope of 5° C./min. A new CD spectrum was obtained at 20° C. after the heating procedure in order to study the refolding ability of the Z variants. The CD measurements were performed on a Jasco J-810 spectropolarimeter (Jasco Scandinavia AB) using a cell with an optical path length of 1 mm.
# Circular dichroism (CD) spectroscopy analysis: A subset of the purified Hiss-tagged Z variants were analyzed by CD spectroscopy as described in Example 3, but with the exceptions that the analysis buffer was PBS and that the temperature was raised to 80° C. in the VTM.
# [3] = system: MDA-MB-231 cells co-cultivated with PBMC; assay: Co-culture of MDA-MB-231 and PBMC (mixed lymphocyte assay); type: cell-based; conditions: six days co-culture with PBMC; 200-0.064 nM
# Protocol: Co-culture of MDA-MB-231 and PBMC: A mixed lymphocyte assay was used to analyze if the Ipi-based complexes could affect proliferation or the cytotoxic effect of T-cells and thereby increase the elimination of cancer cells. Herein, peripheral blood mononuclear cells (PBMC) and MDA-MB-231 cells were co-cultivated for six days and the number of T-cells and cancer cells were assessed. 20000 MDA-MB-231 cells, cultivated in DMEM containing 10% FBS, were pipetted per well of a flat-bottomed 96-well plate and were left to adhere to the bottom of the well by incubation at 37° C. in a humidified 5% CO2 atmosphere. Day 2 of the experiment, serial dilutions (200-0.064 nM) of the Ipi-based complexes were prepared in a separate plate using RPM11640 with L-glut (Lonza) supplemented with 10% FCS, and 1% Pen-Strep (Lonza, cat. no. DE17-603E). The DMEM medium was discarded from the MDA-MB-231 cells and 100 μl of the diluted complexes were added. PBMC were prepared form a buffy coat using Ficoll Paque PLUS (GE Healthcare, cat no. 17-1440-02). In brief, the buffy coat was diluted 2× in PBS. […] The cells were counted and adjusted to 1 million cells per ml in supplemented RPMI medium. […] At day 7 of the experiment, the number of MDA-MD-231 cells and CD3+ T-cells were counted by FACS. […]
Substance,MFI [1],Tm (° C.) [2],"refolding, CD spectra before and after heating to 90° C. [2]",number of MDA-MB231 cells [3]
Lam: control antibody having the same CDR sequences and specificity as PD-1 targeting pembrolizumab; SEQ ID NO:815 and 816,62,,,
"Z15168-Cys: Z13091 mutated to start with AE instead of VD, with C-terminal addition of VDC",,50 °C,Reversible folding,
"Z15169-Cys: Z13156 mutated to start with AE instead of VD, with C-terminal addition of VDC",,58 °C,Reversible folding,
ipilimumab [reference compound],,,,did not induce a concentration dependent decrease of the cancer cells
